Paper PMC11432006
Substitutions are numbered along the chain they refer to. In names and notes the source's numbering stands.

B1: anti-lysozyme VNAR (lyso-VNAR) C30A; C112.1S (protein)
chain: ARVDQTPQTITKETGESLTINCVLRDSNAALSSTYWYRKKSGSTNEESISKGGRYVETVNSGSKSFSLRINDLTVEDSGTYRCKPESRYGSYDAESAALNDQYGGGTVVTVN
B2: anti-lysozyme VNAR (lyso-VNAR) C30L; C112.1L (protein)
chain: B1 chain with A29L, S96L
B3: anti-lysozyme VNAR (lyso-VNAR) C30P; C112.1T (protein)
chain: B1 chain with A29P, S96T
B4: anti-lysozyme VNAR (lyso-VNAR) C30W; C112.1V (protein)
chain: B1 chain with A29W, S96V
B5: anti-lysozyme VNAR (lyso-VNAR) C30G; C112.1A (protein)
chain: B1 chain with A29G, S96A
B6: anti-lysozyme VNAR (lyso-VNAR) C30L; C112.1A (protein)
chain: B1 chain with A29L, S96A
B7: anti-lysozyme VNAR (lyso-VNAR) C30G; C112.1L (protein)
chain: B1 chain with A29G, S96L

What follows are binders tested against lysozyme from egg, P00698 (assay: SPR). Conditions: chain shown with the change; lysozyme immobilized, VNAR flowed over; 1:1 fitting model.
Chain of lysozyme from egg, P00698 (P00698 19-147): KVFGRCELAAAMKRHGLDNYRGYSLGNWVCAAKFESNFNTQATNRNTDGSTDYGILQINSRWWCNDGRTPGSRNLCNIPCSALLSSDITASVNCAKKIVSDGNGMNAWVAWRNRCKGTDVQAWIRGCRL

Going from B1 to B2, the ratio to parent rises from 31.5 to 100.

Compared with B3, B4 is lower in ratio to parent: 211 for the first, 54.3 for the second.

Going from B5 to B6, the ratio to parent falls from 24.1 to 19.1.

B7 showed a ratio to parent of 12.7.
